According to patent US20220401475A1 (Memorial Sloan Kettering, published 2022):

Biological target: T1, B-cell maturation antigen (BCMA) (human, UniProt Q02223 1-184)
T1 construct: whole, on cells
T1 sequence (looked up): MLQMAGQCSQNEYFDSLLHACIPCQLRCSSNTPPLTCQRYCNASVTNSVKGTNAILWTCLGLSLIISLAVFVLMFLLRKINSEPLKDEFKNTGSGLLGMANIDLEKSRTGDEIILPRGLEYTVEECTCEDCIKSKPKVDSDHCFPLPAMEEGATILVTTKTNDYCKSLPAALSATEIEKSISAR
Test: Flow cytometric trogocytosis assay: 1:1 co-culture of CAR T cells with KMS-12-BM for 0, 1, 2 and 4 h. BCMA loss from the tumour cells (upper panel) and BCMA gain on CAR T cells (lower panel). No concentration axis.

B1: 22-BBζ CAR (CD22-BBζ-DsRed, m971 CD22-specific scFv) (other)
chain: QVQLQQSGPGLVKPSQTLSLTCAISGDSVSSNSAAWNWIRQSPSRGLEWLGRTYYRSKWYNDYAVSVKSRITINPDTSKNQFSLQLNSVTPEDTAVYYCAREVTGDLEDAFDIWGQGTMVTVSSGGGGSDIQMTQSPSSLSASVGDRVTITCRASQTIWSYLNWYQQRPGKAPNLLIYAASSLQSGVPSRFSGRGSGTDFTLTISSLQAEDFATYYCQQSYSIPQTFGQGTKLEIKAAAPTTTPAPRPPTPAPTIASQPLSLRPEACRPAAGGAVHTRGLDFACDIYIWAPLAGTCGVLLLSLVITLYCNKRGRKKLLYIFKQPFMRPVQTTQEEDGCSCRFPEEEEGGCELRVKFSRSADAPAYQQGQNQLYNELNLGRREEYDVLDKRRGRDPEMGGKPRRKNPQEGLYNELQKDKMAEAYSEIGMKGERRRGKGHDGLYQGLSTATKDTYDALHMQALPPR
notes: Chimeric antigen receptor on human T cells
  binding result: no binding
